Test results published in paper PMC7994203, “E3 ligase-inactivation rewires CBL interactome to elicit oncogenesis by hijacking RTK–CBL–CIN85 axis” (Oncogene, 2021).
Residue numbers refer to the chain shown, from its start. Values belong to the binder of their own block, whether it stands above or below them. Non-standard residues stand in square brackets, D forms with d. No end group written: not given here. pY = N[C@@H](Cc1ccc(OP(=O)(O)O)cc1)C(=O)O

Assays:
Experiment in all cases: SPR; proteins immobilized via an N-terminal GST-tag, peptides as analyte; Biacore T200, steady-state affinity
GST-CIN85 full-length = biological target: T1, GST-CIN85 full-length (UniProt Q96B97 1-665); conditions: both partners purified
T1 construct: CIN85 full-length; also called CIN85 FL; source: recombinant, purified (preparation in the Supplemental Information); not shown: GST, N-terminal, kept

GST-CIN85-SH3B = biological target: GST-CIN85-SH3B
GST-CIN85-SH3A = biological target: GST-CIN85-SH3A
GST-CIN85-SH3C = biological target: GST-CIN85-SH3C
GST-CBL-Y371S (47–435) = biological target: T2, GST-CBL-Y371S (47–435) (UniProt P22681 47-435, Y371S); conditions: both partners purified
T2 construct: CBL fragment, residues 47-435, with the MDS/MPN mutation Y371S; also called CBL-Y371S fragment; source: recombinant, purified (preparation in the Supplemental Information); not shown: GST, N-terminal, kept
T2 sequence (looked up): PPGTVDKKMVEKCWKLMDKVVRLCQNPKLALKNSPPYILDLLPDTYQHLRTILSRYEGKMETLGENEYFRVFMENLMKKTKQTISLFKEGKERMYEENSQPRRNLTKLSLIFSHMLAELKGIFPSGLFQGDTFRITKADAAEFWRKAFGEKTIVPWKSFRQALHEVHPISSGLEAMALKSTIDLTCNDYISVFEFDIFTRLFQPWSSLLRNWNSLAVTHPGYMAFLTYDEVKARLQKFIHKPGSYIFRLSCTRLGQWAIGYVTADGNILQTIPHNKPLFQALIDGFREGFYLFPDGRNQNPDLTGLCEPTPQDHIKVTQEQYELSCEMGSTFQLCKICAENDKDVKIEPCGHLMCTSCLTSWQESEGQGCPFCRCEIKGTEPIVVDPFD

GST-WT-CBL (47–435) = biological target: T3, GST-WT-CBL (47–435) (UniProt P22681 47-435); conditions: both partners purified
T3 construct: CBL fragment, residues 47-435; also called WT-CBL fragment; source: recombinant, purified (preparation in the Supplemental Information); not shown: GST, N-terminal, kept
T3 sequence (looked up): T2 sequence (looked up) with S325Y

T1 sequence (Q96B97 whole entry): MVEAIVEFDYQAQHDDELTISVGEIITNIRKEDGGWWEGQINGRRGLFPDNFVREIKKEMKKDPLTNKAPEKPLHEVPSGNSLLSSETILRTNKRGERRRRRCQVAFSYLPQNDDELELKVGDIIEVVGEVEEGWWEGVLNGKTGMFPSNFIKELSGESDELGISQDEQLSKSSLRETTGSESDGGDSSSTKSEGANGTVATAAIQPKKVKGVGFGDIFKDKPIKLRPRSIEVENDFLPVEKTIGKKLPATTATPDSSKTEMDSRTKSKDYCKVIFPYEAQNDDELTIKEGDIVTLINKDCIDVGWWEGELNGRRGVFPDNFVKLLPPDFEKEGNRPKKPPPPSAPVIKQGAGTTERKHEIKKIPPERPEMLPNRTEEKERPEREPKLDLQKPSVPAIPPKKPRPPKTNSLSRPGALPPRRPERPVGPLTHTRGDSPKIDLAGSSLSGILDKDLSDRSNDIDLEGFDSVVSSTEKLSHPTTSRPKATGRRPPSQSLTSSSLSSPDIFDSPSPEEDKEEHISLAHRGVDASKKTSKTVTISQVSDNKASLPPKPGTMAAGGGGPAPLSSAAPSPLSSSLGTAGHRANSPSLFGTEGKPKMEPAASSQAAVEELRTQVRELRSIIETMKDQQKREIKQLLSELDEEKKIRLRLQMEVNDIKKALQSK

Kd (GST-CIN85 full-length): 5.5 µM
Kd (GST-CIN85-SH3B): 2.3 µM
Kd (GST-CIN85-SH3A): 35.6 µM
Kd (GST-CIN85-SH3C): 68 µM
Binder: PERPPKPFPRRIN (also called proline-rich peptide of CBL) [PepC1]

Kd (GST-CBL-Y371S (47–435)): 0.6 µM
Kd (GST-WT-CBL (47–435)): 1.2 µM
B1: tyrosine-phosphorylated EGFR peptide (peptide)
peptide: LQR[pY]SSDPTGA
notes: EGFR peptide with a phosphotyrosine; also called pY-EGFR peptide
